The values below are quoted from earlier work in patent US20110118324A1, “METHOD AND COMPOSITION FOR TREATING MULTIPLE SCLEROSIS (VARIANTS)” (priority 2009, published 2011).

The test system of the data set is multiple sclerosis patients.

B1: Betaferon: a recombinant human Beta-1b interferon (protein, UniProt P01574 22-187, looked up, variant C17S)
Interferon beta: MSYNLLGFLQRSSNFQSQKLLWQLNGRLEYCLKDRMNFDIPEEIKQLQQFQKEDAALTIYEMLQNIFAIFRQDSSSTGWNETIVENLLANVYHQINHLKTVLEEKLEKEDFTRGKLMSSLHLKRYYGRILHYLKAKEYSHCAWTIVRVEILRNFYFINRLTGYLRN
modifications: lacks N-terminal Met, non-glycosylated
notes: a recombinant human Beta-1b interferon
Take B1: the “reduction of the frequency of acute conditions occurring in the disease” value is listed as 30%, the “reduction of the severity of acute conditions” value is recorded as 30% and the side effects result is “intensified depressive symptomatology”.
